This passage reports Kd and number printed in the lower right quadrant (IgG1 G2 Alexa647 positive, IgG1 G2F FITC negative) results from patent US20240150494A1.

The target in assay [1] is G2-Rituximab (galactosylated afucosylated glycoform of rituximab) (human). Description: SPR (Biacore T200), 1:1 Langmuir fit. (In general: In SPR one partner is held on a chip, and binding of the other changes the refractive index at the surface.)
The target is the same in assay [2]. Description: flow cytometry of yeast displaying C11, stained with IgG1 G2 (Alexa647) and IgG1 G2F (FITC).
Assay [3] has the same target. As to the kind of experiment: SPR; drawn table, KD (G2).
The target in assay [4] is G2F-Rituximab (galactosylated fucosylated glycoform of rituximab) (human). As to the kind of experiment: SPR (Biacore T200), 1:1 Langmuir fit.
For assay [5], the target named is G2-Rituximab (galactosylated afucosylated glycoform of rituximab) (human). Description: SPR, 1:1 Langmuir global kinetic fit, 1024 to 32 nM in 2-fold steps.

B1: C11 (VHH, not shown: small tags and cut ends)
VHH: QVQLQESGGGLVQAGGSLRLSCAASGYISRYHTMGWYRQAPGKEREFVAGITWGGSTYYADSVKGRFTISRDNAKNTVYLQMNSLKPEDTAVYYCAVDGGTYADPYHYYWGQGTQVTVSS
As for B1, in assay [1], the Kd (in general, the free concentration of one partner at which half of the binding sites on the other are occupied at equilibrium, for simple one-to-one binding) came to 22.8 µM. This molecule registered a number printed in the lower right quadrant (IgG1 G2 Alexa647 positive, IgG1 G2F FITC negative) in assay [2] of 4.

B2: E4 (VHH, not shown: small tags and cut ends)
VHH: QVQLQESGGGLVQAGGSLRLSCAASPYISRYHTMGWYRQAPGKEREFVAAITWGGSTYYADSVKGRFTISRDNAKNTVYLQMNSLKPEDTAVYYCAVDGGTYADPYHYYWGQGTQVTVSS
B2 registered a Kd in assay [3] of 2.48 µM.

B3: E2 (VHH, not shown: small tags and cut ends)
VHH: QVQLQESGGGLVQAGGSLRLSCAASSYISRYHTMGWYRQAPGKERSFVAGITWGGLTYYADSVKGRFTVSRDNAKNTVYLQMNSLKPEDTAVYYCAVDGGTRADPYHYYWGQGTQVTVSS
In assay [3], B3 gave a Kd of 4.74 µM. Compared with the last molecule, the Kd is about 1.9-fold higher.

B4: D3 (VHH, not shown: small tags and cut ends)
VHH: QVQLQESGGGLVQAGGSLRLSCAASGNISADRYMGWYRQAPGKEREFVAAIGYGGTTYYADSVKGRFTISRDNAKNTVYLQMNSLKPEDTAVYYCAVVDGAHSRHRYWGQGTQVTVSS
As to B4, the Kd in assay [1] came out at 0.323 µM; in assay [4], 1.9 µM; in assay [5], 0.353 µM.
